These results are taken from patent US20150351390A1, “COMPOSITIONS AND METHODS FOR AUXIN-ANALOG CONJUGATION” (PIONEER HI-BRED INTERNATIONAL, INC., priority 2012, published 2015).

A short description of data set [1]: LC-MS assay of GH3 conjugation of IAA with Asp or Glu. The following applies: for kcat (hrs−1) IAA-Asp: conjugation of IAA with Asp by recombinant GH3 protein, IAA-Asp product by LC-MS; for kcat (hrs−1) IAA-Glu: conjugation of IAA with Glu by recombinant GH3 protein, IAA-Glu product by LC-MS. The data set is classed as biochemical. The gist of the method: (§1)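 N-His-tagged GH3 homologs expressed in E. coli C41(DE3) and Ni-NTA purified (44 to 164 μg/mL) were incubated 3 hours at 30° C. in 20 mM Tris-HCl pH 8.0, 5 mM MgCl2, 1 mM DTT with 5 mM each of auxin, ATP and Asp or Glu. Conjugates were quantified by LC-MS against standards.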

Data set [2] is described as follows: LC-MS assay of GH3 conjugation of 2,4-D with Asp or Glu. The following applies: 5 mM 2,4-D substrate; for kcat (hrs−1) 2,4-D-Asp: conjugation of 2,4-D with Asp by recombinant GH3 protein, 2,4-D-Asp product by LC-MS; for kcat (hrs−1) 2,4-D-Glu: conjugation of 2,4-D with Glu by recombinant GH3 protein, 2,4-D-Glu product by LC-MS. The data set is classed as biochemical. The gist of the method:
as §1

B1: PtGH3-7: GH3 protein, accession EEE84166 (protein, listed as Populus trichocarpa)
chain: MLPVFDPNDNEAGLKLLEDLTNNACQIQQQVLEEILATNLHTEYLKSFLNGDSGKENFKNKVPIVNYEDIKPCIERIANGEPSSIISTQPITELLTSSGTSGGQPKIMPSTAEELERKTFFYNLLVPVMNKYVDGLDQGKAMYLLFIKPEISTPSGLMARPVLTSYYKSNNFRNRAFNRYNVYTSPDETILCSDSKQSMYCQLLCGLVQRDEVLRVGAIFASAFLRAIKFLEEYLKELCSNIRTGSVSDWITDPNCRNAVLSILSKPNSELADLIEDECSGKSWEGIIKKLWPRTKYIEVIVTGSMAQYIPTLEFYSGGLPLVSTMYGSSECYLGINFKPLSNPYDVSYTLLPNMAYFEFLPVDNNHKEVVPDVQCNGVSVTDRNGKEKVEAVDLVDVKLGHYYELIVTTFTGLYRYRVGDILMVTGFYNNAPQFRFVHRRNVVLSIDTDKTNEEDLLKAVTQAKVLLEPLGFLLTEYTSFADTASIPGHYVLFWELKMRGTNDLPELDPVIMEQCCSIVEESLDSVYRRCRKKDKSIGPLEVRVVTHGTFDALMDFCVSQGSSVNQYKTPRCIKSEEALKILDSRVVGRFSSNKTPFWEPFRIET
Turning to B1, in data set [1], the “kcat (hrs−1) IAA-Asp” value turned out to be 38.668 h⁻¹ and the “kcat (hrs−1) IAA-Glu” value was determined as 450.548 h⁻¹. In addition, in data set [2], the “kcat (hrs−1) 2,4-D-Asp” value came to 0.547 h⁻¹ and the “kcat (hrs−1) 2,4-D-Glu” value was 3.487 h⁻¹.

B2: CcGH3: GH3 protein, accession AAS02074 (protein)
chain: MAVDSVLSSPLGPPACEKDAKALQFIEEMTRNADAVQQRVLDEILTRNSQTEYLKRFKLDGVSDRETFKSRIPVVTYEDLQPEIQRIANGDRSPILSAHPISEFLTSSGTSAGERKLMPTIKEELDRRQLLYSLLMPVMNLYVPGLDKGKGLYFLFIKSETKTPGGLLARPVLTSYYKSEHFKSRPHDPYNVYTSPNEAILCADSFQSMYTQMLCGLYEREQVLRLGAVFASGLVRAIRFLQLHWPQLAHDIRTGNLNPQITNLSLCERMGKIMRPNPELADFVAGECCKENWEGIITRIWPKTKYLDVIVTGAMAQYIPTLDYYSGGLPKACTMYAASECYFGLNLNPMCKPSEVSYTIMPNMGYFEFLPHDSTTTNSSPTNLVDLVDVEVGKEYELVITTYAGLYRYRVGDILRVTGFHNSAPQFHFVRRKNVLLSIDADKTDEAELQKAVENASKLLREFNTSVVEYTSYADTKTIPGHYVIYWELLMKDLKNSPSDEVLNKCCLAMEESLNTVYRQGRVACNSIGPLEIRVVKNGTFEELMDYAISRGASINQYKVPRCVNFAPILELLDSRVMSSHFSPSLPQWTPERRR
modifications: Capsicum chinense
As to B2, in data set [1], the “kcat (hrs−1) IAA-Asp” value came out at 414.234 h⁻¹ and the “kcat (hrs−1) IAA-Glu” value came out at 15.608 h⁻¹. Further, in data set [2], the “kcat (hrs−1) 2,4-D-Asp” value is 2.517 h⁻¹ and the “kcat (hrs−1) 2,4-D-Glu” value worked out at 0.577 h⁻¹.

B3: AtGH3-6: GH3 protein, accession Q9LSQ4 (protein, listed as Arabidopsis thaliana)
chain: MPEAPKIAALEVSDESLAEKNKNKLQFIEDVTTNADDVQRRVLEEILSRNADVEYLKRHGLEGRTDRETFKHIMPVVTYEDIQPEINRIANGDKSQVLCSNPISEFLTSSGTSGGERKLMPTIEEELDRRSLLYSLLMPVMDQFVPGLDKGKGMYFLFIKSESKTPGGLPARPVLTSYYKSSHFKNRPYDPYTNYTSPNQTILCSDSYQSMYSQMLCGLCQHKEVLRVGAVFASGFIRAIKFLEKHWPELARDIRTGTLSSEITDSSVREAVGEILKPDPKLADFVESECRKTSWQGIITRLWPNTKYVDVIVTGTMSQYIPTLDYYSNGLPLVCTMYASSECYFGVNLRPLCKPSEVSYTLIPNMAYFEFLPVHRNSGVTSSISLPKALTEKEQQELVDLVDVKLGQEYELVVTTYAGLYRYRVGDVLSVAGFKNNAPQFSFICRKNVVLSIDSDKTDEVELQNAVKNAVTHLVPFDASLSEYTSYADTSSIPGHYVLFWELCLNGNTPIPPSVFEDCCLTIEESLNSVYRQGRVSDKSIGPLEIKMVESGTFDKLMDYAISLGASINQYKTPRCVKFAPIIELLNSRVVDSYFSPKCPKWSPGHKQWGSN
B3: in data set [1], the “kcat (hrs−1) IAA-Asp” value came out at 447.107 h⁻¹ and the “kcat (hrs−1) IAA-Glu” value turned out to be 14.154 h⁻¹. In data set [2], the “kcat (hrs−1) 2,4-D-Asp” value was found to be 2.136 h⁻¹ and the “kcat (hrs−1) 2,4-D-Glu” value was 0.598 h⁻¹.

B4: GmGH3-21: GH3 protein, accession CAA42636 (protein)
chain: MAIATCDHDKNAKALQFIEDMTQNTESVQERVLAEILSQNSQTEYLKRFELNGATDRDTFKSKVPVVSYDDLKHDIHRIANGDRSPILCAHPISEFLTSSGTSAGERKLMPTIRQEMDRRQLIFSLPMPVMNQYVTDMDKGKALIFLFTKAEQKTPSGLVARPVSASMYKSDQFKNRPYDPYNVYTSPDEAILCPDSFQSMYTQMLCGLIMRHQVLRVGANFASGLLRSIHLLQLNWAQLSHDISTGTLNPKITDPAIKQRMTQILKPDPELAEFIVKECSGENWERIIPRIWPNTKYVEVVVTGAMAQYVPTLDYYSGGLPLASNIYGSSECFFGINLNPFCNPSDVSYTIMPNMGYFEFLPQDHDDASSSSGSSFTLSRLIDLDDVELGKSYEIVVTTYSGLCRYRVGDILRVTGFHNTAPQFSFVRRKNVLLSIDSDKTDEAELQNAVEKASVLLKEFKTSVVEYTSFADTKSIPGHYVIYWELLMKDSSNAPTTEALEQCCLTMEESLNAVYRQGRVADHSIGPLEIRVVKNGTFEELMDYAISRGASISQYKVPRCVTFTPITELLDSRVESVHFSPSEPHWTPERRR
modifications: Glycine max
Turning to B4, in data set [1], the “kcat (hrs−1) IAA-Asp” value was 1087.519 h⁻¹ and the “kcat (hrs−1) IAA-Glu” value worked out at 1075.524 h⁻¹. For the same molecule, in data set [2], the “kcat (hrs−1) 2,4-D-Asp” value was 27.468 h⁻¹ and the “kcat (hrs−1) 2,4-D-Glu” value amounted to 22.910 h⁻¹.

B5: MtGH3: GH3 protein, accession ABN09059 (protein, listed as Medicago truncatula)
chain: MPTSLDYDLSQKNKKTLDFIEDITTHADEIQKKVLAEILNRNANVEYLQRHGLNGHTDSETFKKLLPIITYEDIQNDINLIANGDTSPILTSNPISNFLTSSGTSGGERKLMPATEEEFGRRYLLYSYLMPIMSQFIPDLEKGKGMYLMFIKNESKTPGGIKASPVLTNYYKSSHFLNRPYDPYTNFTSPNETVLCLDSYQSMYSQLLCGLIQNNEVLRVGAVFASGLIRAIRFLEKNWRLLCNDIRTGTLDLLITDDSVREAVMKILKPNKNLADFVEGECNKGSWQGIITRLWPNTKYVDVIVTGTMSQYIPTLDYYSNGLPLVCTMYASSECYFGVNLNPLSKPCHVSYTLIPTMCYYEFLPVNRSNCEVNGSIPPSTTKSLGEKKYQEVVDLVDVKLGQEYELVVTTYAGLYRYKVGDVLKVTGFKNKAPQFSFVCRKNVVLSIESDKTDEVELQNAMKNAVTHLAPFEADVAEYTSYADTTTIPGHYVLYWELNLKGSTKIPHSVYEDCCLTIEESLNSVYRQGRVSDKSIGPLEIKIVEQGTFDKLMDYAINLGASINQYKTPRCVKFAPMVELLESRVMAKYFSPKCPKWVPGHKKWNNE
Consider B5, for which, in data set [1], the “kcat (hrs−1) IAA-Asp” value was determined as 337.033 h⁻¹ and the “kcat (hrs−1) IAA-Glu” value is 11.549 h⁻¹. Besides, in data set [2], the “kcat (hrs−1) 2,4-D-Asp” value amounted to 1.494 h⁻¹ and the “kcat (hrs−1) 2,4-D-Glu” value came to 0.122 h⁻¹.

B6: AtGH3-5: GH3 protein, accession O81829 (protein, listed as Arabidopsis thaliana)
chain: MPEAPKKESLEVFDLTLDQKNKQKLQLIEELTSNADQVQRQVLEEILTRNADVEYLRRHDLNGRTDRETFKNIMPVITYEDIEPEINRIANGDKSPILSSKPISEFLTSSGTSGGERKLMPTIEEELDRRSLLYSLLMPVMSQFVPGLENGKGMYFLFIKSESKTPGGLPARPVLTSYYKSSHFKERPYDPYTNYTSPNETILCSDSYQSMYSQMLCGLCQHQEVLRVGAVFASGFIRAIKFLEKHWIELVRDIRTGTLSSLITDPSVREAVAKILKPSPKLADFVEFECKKSSWQGIITRLWPNTKYVDVIVTGTMSQYIPTLDYYSNGLPLVCTMYASSECYFGVNLRPLCKPSEVSYTLIPSMAYFEFLPVHRNNGVTNSINLPKALTEKEQQELVDLVDVKLGQEYELVVTTYAGLCRYRVGDLLRVTGFKNKAPQFSFICRKNVVLSIDSDKTDEVELQNAVKNAVTHLVPFDASLSEYTSYADTSSIPGHYVLFWELCLDGNTPIPPSVFEDCCLAVEESFNTVYRQGRVSDKSIGPLEIKIVEPGTFDKLMDYAISLGASINQYKTPRCVKFAPIIELLNSRVVDSYFSPKCPKWVPGHKQWGSN
Take B6: in data set [1], the “kcat (hrs−1) IAA-Asp” value was determined as 578.727 h⁻¹ and the “kcat (hrs−1) IAA-Glu” value was 68.086 h⁻¹. For the same molecule, in data set [2], the “kcat (hrs−1) 2,4-D-Asp” value turned out to be 2.309 h⁻¹ and the “kcat (hrs−1) 2,4-D-Glu” value came out at 0.795 h⁻¹.

B7: AtGH3-4: GH3 protein, accession Q9LQ68 (protein, listed as Arabidopsis thaliana)
chain: MAVDSLLQSGMASPTTSETEVKALKFIEEITRNPDSVQEKVLGEILSRNSNTEYLKRFDLNGAVDRKSFKSKVPVVIYEDLKTDIQRISNGDRSPILSSHPITEFLTSSGTSAGERKLMPTIEEDINRRQLLGNLLMPVMNLYVPGLDKGKGLYFLFVKSESTTSGGLPARPALTSYYKSDYFRTSDSDSVYTSPKEAILCCDSSQSMYTQMLCGLLMRHEVNRLGAVFPSGLLRAISFLQNNWKELSQDISTGTLSSKIFDHAIKTRMSNILNKPDQELAEFLIGVCSQENWEGIITKIWPNTKYLDVIVTGAMAEYIPMLEYYSGGLPMASMIYASSESYFGINLNPMCKPSEVSYTIFPNMAYFEFLPHNHDGDGGVEATSLVELADVEVGKEYELVITTYAGLYRYRVGDILRVTGFHNSAPQFKFIRRENVLLSIESDKTDEADLQKAVENASRLLAEQGTRVIEYTSYADTKTIPGHYVIYWELLSRDQSNALPSDEVMAKCCLEMEESLNAVYRQSRVSDKSIGPLEIRVVQNGTFEELMDFSISRGSSINQYKVPRCVSLTPIMKLLDSRVVSAHFSPSLPHWSPERRH
Regarding B7, in data set [1], the “kcat (hrs−1) IAA-Asp” value was 414.602 h⁻¹ and the “kcat (hrs−1) IAA-Glu” value stood at 37.932 h⁻¹. In addition, in data set [2], the “kcat (hrs−1) 2,4-D-Asp” value was 2.032 h⁻¹ and the “kcat (hrs−1) 2,4-D-Glu” value amounted to 0.594 h⁻¹.
